Laboratory results taken from patent US20210347899A1 (BRIGHAM AND WOMEN S HOSPITAL, published 2021).

T1: full length human KLRG1 (human, UniProt Q96E93 1-195)
T1 sequence (looked up): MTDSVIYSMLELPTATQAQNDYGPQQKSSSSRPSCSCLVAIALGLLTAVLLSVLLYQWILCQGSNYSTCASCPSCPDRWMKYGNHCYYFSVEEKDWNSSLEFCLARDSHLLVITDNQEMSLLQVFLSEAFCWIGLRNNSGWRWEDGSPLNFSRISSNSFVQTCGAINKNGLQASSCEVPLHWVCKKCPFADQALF

T2: full length cynomolgus KLRG1 (cynomolgus, UniProt A0A2K5WAP9 1-186)
T2 construct: whole, on cells; also called Cyno KLRG1; CHO-cynomolgus-KLRG1
T2 sequence: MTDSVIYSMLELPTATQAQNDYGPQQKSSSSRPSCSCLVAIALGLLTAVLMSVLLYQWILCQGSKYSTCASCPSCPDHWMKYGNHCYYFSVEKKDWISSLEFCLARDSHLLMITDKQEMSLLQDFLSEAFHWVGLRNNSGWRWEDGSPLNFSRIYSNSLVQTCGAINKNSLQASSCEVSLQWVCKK

T3: cynomolgus KLRG1 ECD (cynomolgus, biotinylated in the OCTET assay, site not stated)
T3 construct: Recombinant proteins were made as FC fusion or as HIS tagged versions; also called cynonolgus KLRG1 ECD
T3 chain: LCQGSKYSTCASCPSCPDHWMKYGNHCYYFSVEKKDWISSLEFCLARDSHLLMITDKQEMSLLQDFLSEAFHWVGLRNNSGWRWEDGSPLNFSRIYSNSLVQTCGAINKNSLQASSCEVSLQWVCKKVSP


Experiments:
full length human KLRG1 [1] = target: T1, full length human KLRG1; test: cell-based or functional assay
full length human KLRG1 [2] = target: T1, full length human KLRG1; test: cell-based or functional assay; remark: listed apart in the source
full length human KLRG1 [3] = target: T1, full length human KLRG1; test: FACS on CHO-human-KLRG1 cells
Experimental: (§1) Binding of anti-KLRG1 monoclonal antibodies to cell expressed human and cynomolgus-KLRG1 was carried out by FACS. Chinese hamster ovary (CHO) cells were stably transfected to express full length human KLRG1 (CHO-human-KLRG1) and cynomolgus KLRG1 (CHO-cynomolgus-KLRG1).

[4] = target: T2, full length cynomolgus KLRG1; test: FACS on CHO-cynomolgus-KLRG1 cells
Experimental: as §1

cynomolgus KLRG1 ECD = target: T3, cynomolgus KLRG1 ECD; test: hybridoma screen for binding to KLRG1 ECD
full length human KLRG1 [5] = target: T1, full length human KLRG1; test: FACS competition, loss of HIS tagged E-cadherin binding to CHO-hKLRG1 cells
Experimental: (§2) The ability of monoclonal antibodies to inhibit E-cadherin/KLRG1 binding was measured by FACS. Binding of E-cadherin to CHO-hKLRG1 cells was first determined by incubating the KLRG1 expressing cells with varying concentration of HIS tagged recombinant E-cadherin and detected by FACS with anti-HIS detection antibody.

full length human KLRG1 [6] = target: T1, full length human KLRG1; test: E-cadherin binding inhibition study, FACS on CHO-hKLRG1 cells; labels of Table 12 stand one row too low, value agrees with ABC_G1N08 in Table 8
Experimental: as §2
(§3) IC50 values for each antibody were derived from E-cadherin binding inhibition studies and plotted against IFNγ production levels measured in CD8+ T cells IFNγ release assays.

full length human KLRG1 [7] = target: T1, full length human KLRG1; test: E-cadherin binding inhibition study, FACS on CHO-hKLRG1 cells; labels of Table 12 stand one row too low, value agrees with ABC_G1N05 in Table 8
Experimental: as §2, §3

| IFNγ released (pg/ml), Sample 1 (full length human KLRG1 [1]) [pg/mL] | IFNγ released (pg/ml), Sample 2 (full length human KLRG1 [1]) [pg/mL] | IFNγ (full length human KLRG1 [2]) [pg/mL] | EC50 (full length human KLRG1 [3]) [nM] | EC50 [4] [nM] | binding result (cynomolgus KLRG1 ECD) | IC50 (full length human KLRG1 [5]) [nM] | IC50 (full length human KLRG1 [6]) [nM] | IC50 (full length human KLRG1 [7]) [nM] | Binder |
| --- | --- | --- | --- | --- | --- | --- | --- | --- | --- |
| 1010 | 1060 | 1040 | 4.8 | 1.3 | binds | 10 | 10 |  | ABC_G1N08 (antibody, V domains shown, Mouse hybridoma monoclonal antibody) VH: QVQLQQSGAELAKPGASVKLSCKASGYTFTSYFLHWVKQRPGQGLEWIGYMNPSSGYTKCNQKFKDKATLTADKSSSTAYMQVSSLTYEDSAVYYCARDRIGYWDFDVWGTGTTVTVSS VL: DVVMTQSQKFMSTTVGDRVSITCKASQNVGTAVAWYQQKPGQSPKLLIYSASNRYTGVPDRFTGSGSGTDFTLTITNMQSEDLADYFCQQYSSYLTFGAGTKLDLK |
| 1010 | 1080 | 1050 | 39.8 | 0.5 | binds | 23 |  | 23 | ABC_G1N05 (antibody, V domains shown, Mouse hybridoma monoclonal antibody) VH: EVLLMESGGDLVKPGGSLKLSCAASGFTFSSYDMSWVRQTPDKRLEWVATISSSGRYTFYPDNVKGRFTISRDNAKNTLYLQVSNLKSEDTAMYYCSRTGVTTVVFTDYFDYWGQGTTLTVSS VL: DIQMTQSPSSLSASLGERVSLTCRASQDIGNSLNWLQQGPDGTIKRLIYATSSLDSGVPKRFSGSRSGSTYSLTISSLESEDFVAYYCLQYLSSPPTFGGGTKLEIK |
